# Assay results as given in patent US20090221680, “Aptamers that bind thrombin with high affinity” (published 2009).
# B1: AMX(395)_A4 (ssDNA)
# DNA: TCCCGGGAGATCGCTTCGAAAATGGTTGGCGTGGGTGGCTGAGGATCGATC
# Target: T1, thrombin (alpha-thrombin) (Homo sapiens, UniProt P00734;P00734 P00734:315-363,P00734:364-622)
# Assay: filter; 10 nM thrombin
# Conditions: not given
row,Binder,binding signal [% bound]
1,TCCCGTCGATTCGGTATGGTTTCGTTTCTGGGTGGCTGAGGATCGATC (ssDNA) [AMX(399)_B11],18.7
2,TCCCATCGATTTGTCCTCAGAGGTTGGCGTGGGTGGCTGAGGATCGATC (ssDNA) [AMX(399)_B12],24.2
3,TCCCGAGCGATCGGGGTGGTTTTTTGGGAGTGGGTGGCTGAGGATCGATC (ssDNA) [AMX(399)_C7],6.8
4,TCCCGTCGATCAGGGGTAATTTGCTGGTGGTGGGTGGCTGAGGATCGATC (ssDNA) [AMX(399)_C8],36.8
5,TTCCTGTCGATAAGGGGTATTATAGTGGTGTGGGTGGCTGAGGATCGATC (ssDNA) [AMX(399)_C9],11.2
6,TCTCATTCGTTCCGGGGTATTTAGTGGGTCGGGTGGCTGAGGATCGATC (ssDNA) [AMX(399)_C10],35.4
7,TCCCGATCTATCCGGGGTACATTTGTGGTTTGGGTGGCTGAGGATCGATC (ssDNA) [AMX(399)_C12],18.7
8,TCCCGCGATCTCTGGGGTAACGTTTTGGTGTGGGTGGCTGAGGATCGATC (ssDNA) [AMX(399)_D3],21.7
9,TCCCGATTGATTCTGGGAGGTTTGGTTCTGGGTGGCTGAGGATCGATC (ssDNA) [AMX(399)_D4],10.4
10,TCCCGCATTGAATAGGACTCAGGGATGGTGTGGGTGGCTGAGGATCGATC (ssDNA) [AMX(399)_D6],22.7
11,TCCCTCGATCTAAGGTGCTTTTAGTGGTTTGGGTGGCTGAGGATCGATC (ssDNA) [AMX(399)_D7],7.59
12,TCTCGATCGGACGTGGTGGGTTACTGGCTTGGGTGGCTGAGGATCGATC (ssDNA) [AMX(399)_D8],22.2
13,TCCCAGGATCGATTCTGGTATTGTTGGTGGGGGTGGCTGAGGATCGATC (ssDNA) [AMX(399)_D9],20.3
14,TCCCATCGATCTGTGGTGGTTTTGTGGTTTGGGTGGCTGAGGATCGATC (ssDNA) [AMX(399)_D10],38.8
15,TCCCAGAGAGCCGGGGTATAATTGTGGTGTGGGTGGCTGAGGATCGATC (ssDNA) [AMX(399)_D11],41.3
16,TCCCATCGATCTGTGGTCTTTTTTGGTGTGGGTGGCTGAGGATCGATC (ssDNA) [AMX(399)_D12],32.6
17,TCCCACGATCCGGGGTGTCTTTCGTGGGCTGGGTGGCTGAGGATCGATC (ssDNA) [AMX(399)_E1],37.6
18,TCCCGATTTCGATTCTGGTAGTGTTTTCTGGGTGGCTGAGGATCGATC (ssDNA) [AMX(399)_E3],13
19,TCCCATCGAACCGCGGGTAATCTTATGGGTCGGGTGGCTGAGGATCGATC (ssDNA) [AMX(399)_E4],7.5
20,TCCCATCGAGCCGGGTATGTTTCGTTGGGCTGGGTGGCTGAGGATCGATC (ssDNA) [AMX(399)_E5],15
21,TCCCATCGATACGGGGTGGAATCTTGGGGTGGGTGGCTGAGGATCGATC (ssDNA) [AMX(399)_E9],14.8
22,TCCCGATTGTCATAGGTGGTTTGTCTGGGTAGGGTGGCTGAGGATCGATC (ssDNA) [AMX(399)_E10],29.8

# Target: T1, thrombin (alpha-thrombin)
# Assay: filter; DPBS Ca2+ Mg2+, 0.1 mg/ml BSA
# Conditions: not given
row,Binder,Kd [nM]
1,B1,29.4
2,TCCCGAGCGATACTGCCTAGGTTGGGTAGGGTGGTGGCTGAGGATCGATC (ssDNA) [AMX(398)_D6 (ARC2026)],0.29
3,TCCCGAGTGATCCGGGGTGTTTTTTTGGGTTGGGTGGCTGAGGATCGATC (ssDNA) [AMX(398)_E3],0.89
4,TCCCGATCGCTGTCCTAGGATGGGTAGGGTGGTGGCTGAGGATCGATC (ssDNA) [AMX(399)_D2],1.33
5,TCCCGTTCGAGTCCTGGTGTTTTATTGGCCTGGGTGGCTGAGGATCGATC (ssDNA) [AMX(399)_D5],2.26
6,TCCCTAGATCGGGTCCTGGTAGTGTTTCTGGGTGGCTGAGGATCGATC (ssDNA) [AMX(399)_F5],2.35
7,TCCCAATCGGTCCTGGTAATATATTGGTCGGGGTGGCTGAGGATCGATC (ssDNA) [AMX(399)_H3],1.93
8,TCCCGGGATCGAGTCCGATTAGGGATGGTGTGGGTGGCTGAGGATCGATC (ssDNA) [AMX(395)_B7],14.5
9,TCCCGGGTGGTTATCTTCTCAGGGATGGTGTGGGTGGCTGAGGATCGATC (ssDNA) [AMX(395)_C1],7.48
10,TCCCAAGATCGGTACATACAGTGGGTGGTGAGGGTGGCTGAGGATCGATC (ssDNA) [AMX(395)_D11],5.55
11,TCCGATTGACGTGGTGGGTTACTGGTTTGGGTGGCTGAGGATCGATC (ssDNA) [AMX(398)_A1],0.3
12,TCCTGAGGGATCAGGCTAGGTTGGGTAGGGTGGTGGCTGAGGATCGATC (ssDNA) [AMX(398)_C8 (ARC2027)],0.42

# Target: thrombin (endogenous, clotting assay in plasma or whole blood) (Homo sapiens, UniProt P00734;P00734 P00734:328-363,P00734:364-622)
# Assay: inhibition; ACT at 10 uM
# Conditions: not given
row,Binder,activity [s]
1,ACCTCAGGGATGGTGTGGGTGGCTGAGGT (ssDNA) [ARC2173],415
2,TACCTCAGGGATGGTGTGGGTGGCTGAGGTA (ssDNA) [ARC2174],416
3,CTACCTCAGGGATGGTGTGGGTGGCTGAGGTAG (ssDNA) [ARC2175],392
4,ACTACCTCAGGGATGGTGTGGGTGGCTGAGGTAGT (ssDNA) [ARC2176],394
5,GACTACCTCAGGGATGGTGTGGGTGGCTGAGGTAGTC (ssDNA) [ARC2177],401

# Target: prothrombin (Homo sapiens, UniProt P00734 P00734:44-622)
# Assay: filter; 50 nM prothrombin
# Conditions: tags: Athens Research
# Protocol: Dot blot binding assays were performed throughout the selections to monitor the protein binding affinity of the pools. Trace ³²P-labeled RNA was combined with a dilution series of human Thrombin (1 nM-1000 nM) and incubated at room temperature for 30 minutes in 1×DPBS (w/ Ca²⁺ and Mg²⁺) (Gibco, Catalog #14040, Invitrogen, Carlsbad, Calif.) plus 0.1 mg/ml BSA in a final volume of 30 μl. The binding reactions were analyzed by nitrocellulose filtration using a Minifold I dot-blot, 96-well vacuum filtration manifold (Schleicher & Schuell, Keene, N.H.). A three-layer filtration medium was used, consisting (from top to bottom) of Protran nitrocellulose (Schleicher & Schuell, Keene, N.H.), Hybond-P nylon (Amersham Biosciences, Piscataway, N.J.) and GB002 gel blot paper (Schleicher & Schuell, Keene, N.H.). RNA that is bound to protein is captured on the nitrocellulose filter, whereas the non-protein bound RNA is captured on the nylon filter. The gel blot paper was included simply as a supporting medium for the other filters. Following filtration, the filter layers were separated, dried and exposed on a phosphor screen (Amersham Biosciences, Piscataway, N.J.) and quantified using a Storm 860 Phosphorimager® blot imaging system (Amersham Biosciences, Piscataway, N.J.).
# Based on pool binding monitored throughout the selections as described above, Round 9 Pools from both Selection #2 and #3 were also cloned using a TOPO TA Cloning kit (Invitrogen, Carlsbad, Calif.) according to manufacturer's instructions, and sequenced. Of the 136 sequences obtained from Round 9 of both selections, 130 unique sequences were selected for assaying in a single-point dot blot screen against thrombin and prothrombin to test for selective binding to thrombin. Clones were ordered from IDT (Coralville, Iowa) at 25 μmole synthesis scale. Clone transcripts were 5′ end labeled with γ̅³²P ATP and spin purified with Centrisep columns (Princeton Separations, Adelphia, N.J.) to remove excess label. Trace amounts of labeled clone were incubated with +/−10 nM Thrombin (or +/−50 nM prothrombin) and 0.1 mg/ml BSA in a total volume of 30 μl 1×DPBS (w/ Ca²⁺ and Mg²⁺) (Gibco, Catalog #14040, Invitrogen, Carlsbad, Calif.) for 30 minutes. Post incubation, the binding reaction applied the dot-blot binding assay apparatus previously described.
row,Binder,binding signal [% bound]
1,TCCCGAGTGATCCGGGGTGTTTTTTTGGGTTGGGTGGCTGAGGATCGATC (ssDNA) [AMX(398)_E3],47.5
2,TCCCGTTCGAGTCCTGGTGTTTTATTGGCCTGGGTGGCTGAGGATCGATC (ssDNA) [AMX(399)_D5],23.8
3,TCCCTAGATCGGGTCCTGGTAGTGTTTCTGGGTGGCTGAGGATCGATC (ssDNA) [AMX(399)_F5],49.3
4,TCCCAATCGGTCCTGGTAATATATTGGTCGGGGTGGCTGAGGATCGATC (ssDNA) [AMX(399)_H3],45.5
5,TCCGATTGACGTGGTGGGTTACTGGTTTGGGTGGCTGAGGATCGATC (ssDNA) [AMX(398)_A1],18
6,TCCTGAGGGATCAGGCTAGGTTGGGTAGGGTGGTGGCTGAGGATCGATC (ssDNA) [AMX(398)_C8 (ARC2027)],48.5
7,TCCCGTCGATTCGGTATGGTTTCGTTTCTGGGTGGCTGAGGATCGATC (ssDNA) [AMX(399)_B11],18.2
8,TCCCATCGATTTGTCCTCAGAGGTTGGCGTGGGTGGCTGAGGATCGATC (ssDNA) [AMX(399)_B12],15.3
9,TCCCGAGCGATCGGGGTGGTTTTTTGGGAGTGGGTGGCTGAGGATCGATC (ssDNA) [AMX(399)_C7],6.94
10,TCCCGTCGATCAGGGGTAATTTGCTGGTGGTGGGTGGCTGAGGATCGATC (ssDNA) [AMX(399)_C8],33.8
11,TTCCTGTCGATAAGGGGTATTATAGTGGTGTGGGTGGCTGAGGATCGATC (ssDNA) [AMX(399)_C9],10.9
12,TCTCATTCGTTCCGGGGTATTTAGTGGGTCGGGTGGCTGAGGATCGATC (ssDNA) [AMX(399)_C10],34.3
13,TCCCGATCTATCCGGGGTACATTTGTGGTTTGGGTGGCTGAGGATCGATC (ssDNA) [AMX(399)_C12],17.2
14,TCCCGCGATCTCTGGGGTAACGTTTTGGTGTGGGTGGCTGAGGATCGATC (ssDNA) [AMX(399)_D3],25.3
15,TCCCGATTGATTCTGGGAGGTTTGGTTCTGGGTGGCTGAGGATCGATC (ssDNA) [AMX(399)_D4],9.02
16,TCCCGCATTGAATAGGACTCAGGGATGGTGTGGGTGGCTGAGGATCGATC (ssDNA) [AMX(399)_D6],22
17,TCCCTCGATCTAAGGTGCTTTTAGTGGTTTGGGTGGCTGAGGATCGATC (ssDNA) [AMX(399)_D7],24.9
18,TCTCGATCGGACGTGGTGGGTTACTGGCTTGGGTGGCTGAGGATCGATC (ssDNA) [AMX(399)_D8],19.6
19,TCCCAGGATCGATTCTGGTATTGTTGGTGGGGGTGGCTGAGGATCGATC (ssDNA) [AMX(399)_D9],19.7
20,TCCCATCGATCTGTGGTGGTTTTGTGGTTTGGGTGGCTGAGGATCGATC (ssDNA) [AMX(399)_D10],40.8
21,TCCCAGAGAGCCGGGGTATAATTGTGGTGTGGGTGGCTGAGGATCGATC (ssDNA) [AMX(399)_D11],39.5
22,TCCCATCGATCTGTGGTCTTTTTTGGTGTGGGTGGCTGAGGATCGATC (ssDNA) [AMX(399)_D12],32.2
23,TCCCACGATCCGGGGTGTCTTTCGTGGGCTGGGTGGCTGAGGATCGATC (ssDNA) [AMX(399)_E1],39.1
24,TCCCGATTTCGATTCTGGTAGTGTTTTCTGGGTGGCTGAGGATCGATC (ssDNA) [AMX(399)_E3],13.3
25,TCCCATCGAACCGCGGGTAATCTTATGGGTCGGGTGGCTGAGGATCGATC (ssDNA) [AMX(399)_E4],7.29
26,TCCCATCGAGCCGGGTATGTTTCGTTGGGCTGGGTGGCTGAGGATCGATC (ssDNA) [AMX(399)_E5],12.5
27,TCCCATCGATACGGGGTGGAATCTTGGGGTGGGTGGCTGAGGATCGATC (ssDNA) [AMX(399)_E9],13.8
28,TCCCGATTGTCATAGGTGGTTTGTCTGGGTAGGGTGGCTGAGGATCGATC (ssDNA) [AMX(399)_E10],28.9
